In patent US20240116985A1, “STAPLED PEPTIDES AND METHODS THEREOF” (priority 2020, published 2024) one finds IC50 data, which are given here for 36 molecules.

A word on the IC50: it is the concentration needed to halve the response being measured.

Sequences and labels used below:
B1: I-2228 (peptide)
peptide: Ac-[αMeP]D[tBuAla][Aib]DDAAFQ[Aib][3Thi][Bta]H-NH2
SMILES: CC(=O)N1CCC[C@@]1(C)C(=O)N[C@@H](CC(=O)O)C(=O)N[C@@H](CC(C)(C)C)C(=O)NC(C)(C)C(=O)N[C@@H](CC(=O)O)C(=O)N[C@@H](CC(=O)O)C(=O)N[C@@H](C)C(=O)N[C@@H](C)C(=O)N[C@@H](Cc1ccccc1)C(=O)N[C@@H](CCC(N)=O)C(=O)NC(C)(C)C(=O)N[C@@H](Cc1ccsc1)C(=O)N[C@@H](Cc1csc2ccccc12)C(=O)N[C@@H](Cc1c[nH]cn1)C(N)=O
B2: I-383 (peptide)
peptide: XDAXDEAAFVXXXQ
modifications: not fully specified; N-terminal Ac; PL3 at 1, B5 at 4, S8 at 11 (staples 1-4 and 4-11 by olefin metathesis); 2pyrA at 12; BztA at 13; C-terminal NH2

Starred links: 1 amine or outer side, 2 acyl side, 3 side chain; linkers in the order of their positions; H or OH if unused. Positions of bridges follow the written chain, without caps; N, C: chain ends. Non-standard residues stand in square brackets, D forms with d. Primed or numbered codes have the meaning given here. PyrS2″ = (S)-3-amino-1-((pent-4-en-1-yloxy)carbonyl)pyrrolidine-3-carboxylic acid (stapling residue), C=CCCCOC(=O)N1CC[C@@](N[*:1])(C(=O)[*:2])C1; B5(16) = 2-amino-2-(pent-4-en-1-yl)hept-6-enoic acid = 2,2-bis(4-pentenyl)glycine (stitching residue), C=CCCCC(CCCC=C)(N[*:1])C(=O)[*:2]; B5(4) = 2,2-bis(4-pentenyl)glycine = 2-amino-2-(pent-4-en-1-yl)hept-6-enoic acid (stitching residue), C=CCCCC(CCCC=C)(N[*:1])C(=O)[*:2]; B5(5) = 2,2-bis(4-pentenyl)glycine, 2-amino-2-(pent-4-en-1-yl)hept-6-enoic acid (stitching residue), C=CCCCC(CCCC=C)(N[*:1])C(=O)[*:2]; TfeGA = (S)-2-amino-3-((carboxymethyl)(2,2,2-trifluoroethyl)amino)propanoic acid, O=C([C@H](CN(CC(=O)[*:3])CC(F)(F)F)N[*:1])[*:2]; PyrS2 = (S)-3-amino-1-((pent-4-en-1-yloxy)carbonyl)pyrrolidine-3-carboxylic acid, C=CCCCOC(=O)N1CC[C@@](N[*:1])(C(=O)[*:2])C1; B5(3) = 2,2-bis(4-pentenyl)glycine (stitching residue), C=CCCCC(CCCC=C)(N[*:1])C(=O)[*:2]; AspSH = (S)-2-amino-4-mercapto-4-oxobutanoic acid, O=C(C[C@H](N[*:1])C(=O)[*:2])S[*:3]; B5 = 2-amino-2-(pent-4-en-1-yl)hept-6-enoic acid, C=CCCCC(CCCC=C)(N[*:1])C(=O)[*:2]; Phe(3-CONH2) = NC(=O)c1cccc(C[C@H](N)C(=O)O)c1; Phe(3-COOH) = N[C@@H](Cc1cccc(C(=O)O)c1)C(=O)O; Phe(4-CONH2) = NC(=O)c1ccc(C[C@H](N)C(=O)O)cc1; 2F3MeF = Cc1cccc(C[C@H](N[*:1])C(=O)[*:2])c1F; Phe(2-CONH2) = NC(=O)c1ccccc1C[C@H](N)C(=O)O; Phe(3-Cl) = N[C@@H](Cc1cccc(Cl)c1)C(=O)O; Phe(4-Cl) = N[C@@H](Cc1ccc(Cl)cc1)C(=O)O; Phe(2-Cl) = N[C@@H](Cc1ccccc1Cl)C(=O)O; Bta = N[C@@H](Cc1csc2ccccc12)C(=O)O; Lys(iPr) = CC(C)NCCCC[C@H](N)C(=O)O; αAllylPro = C=CC[C@@]1(C(=O)O)CCCN1; tBuAla = CC(C)(C)C[C@H](N)C(=O)O; 3Thi = N[C@@H](Cc1ccsc1)C(=O)O; Cha = N[C@@H](CC1CCCCC1)C(=O)O; S8 = C=CCCCCCC[C@](C)(N)C(=O)O; αMeP = C[C@@]1(C(=O)O)CCCN1; TfeGA″ = not defined here; hSer = N[C@@H](CCO)C(=O)O; Nle = CCCC[C@H](N)C(=O)O; Aib = CC(C)(N)C(=O)O

In one assay the target is full-length beta-Catenin (Uniprot ID P35222) (Homo sapiens (Human)) (UniProt P35222). Nature of the assay: fluorescence polarization competition; displacement of 5FAM-TCF4(10-53) from full-length beta-catenin.
Target sequence in this assay (P35222 whole entry): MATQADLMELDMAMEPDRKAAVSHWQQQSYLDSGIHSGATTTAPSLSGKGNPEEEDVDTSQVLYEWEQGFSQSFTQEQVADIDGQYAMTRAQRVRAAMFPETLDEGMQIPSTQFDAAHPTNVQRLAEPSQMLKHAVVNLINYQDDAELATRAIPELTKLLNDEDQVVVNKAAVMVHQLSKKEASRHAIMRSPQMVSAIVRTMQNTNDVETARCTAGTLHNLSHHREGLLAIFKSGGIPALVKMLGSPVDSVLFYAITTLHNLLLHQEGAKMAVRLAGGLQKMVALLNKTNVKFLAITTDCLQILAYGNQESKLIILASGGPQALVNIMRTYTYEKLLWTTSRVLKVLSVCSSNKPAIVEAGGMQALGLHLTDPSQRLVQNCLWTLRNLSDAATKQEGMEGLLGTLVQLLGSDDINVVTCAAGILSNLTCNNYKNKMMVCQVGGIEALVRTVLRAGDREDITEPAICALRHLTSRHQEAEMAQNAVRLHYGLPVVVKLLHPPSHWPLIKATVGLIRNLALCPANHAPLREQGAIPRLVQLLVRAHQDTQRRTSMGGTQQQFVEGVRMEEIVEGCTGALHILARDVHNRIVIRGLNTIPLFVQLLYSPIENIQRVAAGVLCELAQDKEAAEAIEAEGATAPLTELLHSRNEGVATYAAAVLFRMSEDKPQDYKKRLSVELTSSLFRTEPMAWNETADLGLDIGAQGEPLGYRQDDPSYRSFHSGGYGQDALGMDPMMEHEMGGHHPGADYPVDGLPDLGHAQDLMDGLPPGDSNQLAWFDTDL
For the molecule Ac-[αAllylPro]D[Nle][B5(5)]DEAAFQ[S8]F[Bta]Q-NH2 (staple 1-4, 4-11) [I-1522: Ac-PL3-Asp-nLeu-B5-Asp-Glu-Ala-Ala-Phe-Gln-S8-Phe-BztA-Gln-NH2], the IC50 was found to be 6 nM.

Consider Ac-[αAllylPro]D[Nle][B5(5)]DEAAF[hSer][S8]F[Bta]Q-NH2 (staple 1-4, 4-11) [I-1525: Ac-PL3-Asp-nLeu-B5-Asp-Glu-Ala-Ala-Phe-Hse-S8-Phe-BztA-Gln-NH2], for which the IC50 amounted to 22 nM. The same measure, in the same setting: the figure for Ac-[αAllylPro]DN[B5(5)]DDAAFL[PyrS2″][3Thi][Bta][hSer]-NH2 (staple 1-4, 4-11) [I-1518: Ac-PL3-Asp-Asn-B5-Asp-Asp-Ala-Ala-Phe-Leu-PyrS2-3Thi-BztA-Hse-NH2] is 23 nM.

Take Ac-[αAllylPro]DN[B5(5)]DDAAFL[PyrS2″][3Thi][Bta]Q-NH2 (staple 1-4, 4-11) [I-1517: Ac-PL3-Asp-Asn-B5-Asp-Asp-Ala-Ala-Phe-Leu-PyrS2-3Thi-BztA-Gln-NH2]: the IC50 amounted to 32 nM.

Turning to Ac-[αAllylPro]D[Nle][B5(5)]DEAAFL[S8]F[Bta]Q-NH2 (staple 1-4, 4-11) [I-1523: Ac-PL3-Asp-nLeu-B5-Asp-Glu-Ala-Ala-Phe-Leu-S8-Phe-BztA-Gln-NH2], the half-inhibitory concentration (IC50) amounted to 29 nM. With Ac-[αAllylPro]D[Nle][B5(5)]DEAAFQ[S8]F[Bta]Q-NH2 (staple 1-4, 4-11; also: staple isomer, earlier eluting HPLC peak) [I-1521: Ac-PL3-Asp-nLeu-B5-Asp-Glu-Ala-Ala-Phe-Gln-S8-Phe-BztA-Gln-NH2], the IC50 turned out to be 16 nM.

Ac-[αAllylPro]D[Nle][B5(5)]DEAAF[hSer][S8]F[Bta]Q-NH2 (staple 1-4, 4-11; also: staple isomer, earlier eluting HPLC peak) [I-1524: Ac-PL3-Asp-nLeu-B5-Asp-Glu-Ala-Ala-Phe-Hse-S8-Phe-BztA-Gln-NH2] came in with a half-maximal inhibitory concentration (IC50) of 17 nM.

Another assay shares this target. As to the kind of experiment: fluorescence polarization competition; peptide titrated against 10 nM full-length beta-catenin + 10 nM 5FAM-TCF4(10-53). In general terms: Polarisation of emitted light reports the rotation of a fluorescent probe.
In the case of Ac-[αAllylPro]D[tBuAla][B5(3)]D[Phe(3-COOH)]AAFL[PyrS2″][2F3MeF][Phe(4-Cl)]S-NH2 (staple 1-4, 4-11) [I-2222], the IC50 is 84 nM. In the case of Ac-[αAllylPro]N[Cha][B5(5)]DQ[Lys(iPr)]AFN[PyrS2″][Phe(3-CONH2)][Bta]Q-NH2 (staple 1-4, 4-11) [I-2164], the IC50 was 1180 nM.

With B1, the half-inhibitory concentration (IC50) came out at 2140 nM. On the same count and under the same terms, the figure for Ac-[αAllylPro]D[tBuAla][B5(16)]D[TfeGA]AAFL[PyrS2″][3Thi][Bta]N-NH2 (staple 1-4, 4-11) [I-1705] is 9 nM. Turning to Ac-[αAllylPro]N[Cha][B5(4)]DQ[Lys(iPr)]AFN[PyrS2″][Phe(2-CONH2)][Bta][hSer]-NH2 (staple 1-4, 4-11) [I-2168], the IC50 came to 212 nM.

Consider Ac-[αAllylPro]N[Cha][B5(5)]DQ[Lys(iPr)]A[Phe(4-CONH2)]N[PyrS2″]F[Bta][hSer]-NH2 (staple 1-4, 4-11) [I-2174], for which the concentration for half-maximal inhibition (IC50) is 10000 nM. Still for that read-out and setting: the figure for Ac-[αAllylPro]N[Cha][B5(5)]DQ[Lys(iPr)]AFN[PyrS2″][Phe(4-CONH2)][Bta][hSer]-NH2 (staple 1-4, 4-11) [I-2169] is 10000 nM. Still for that read-out and setting: the figure for Ac-[αAllylPro]N[Cha][B5(5)]DQ[Lys(iPr)]AFN[PyrS2″]Y[Bta][hSer]-NH2 (staple 1-4, 4-11) [I-2172] is 10000 nM.

With Ac-[αAllylPro]N[Cha][B5(5)]DQ[Lys(iPr)]A[Phe(2-CONH2)]N[PyrS2″]F[Bta][hSer]-NH2 (staple 1-4, 4-11) [I-2173], the IC50 was 3070 nM. Same read-out and setting: with Ac-[αAllylPro]D[tBuAla][B5(5)]DDAAFN[PyrS2″][3Thi]WQ-NH2 (staple 1-4, 4-11) [I-2175] the figure was 19 nM. Same read-out and setting: the figure for Ac-[αAllylPro]D[tBuAla][B5(4)]D[TfeGA]AAFL[PyrS2″][3Thi][Bta][Phe(3-CONH2)]-NH2 (staple 1-4, 4-11) [I-1708] is 29 nM. On the same count and under the same terms, with Ac-[αAllylPro]D[tBuAla][B5(5)]D[TfeGA]AAFL[PyrS2″][3Thi][Bta][Phe(3-CONH2)]-NH2 (staple 1-4, 4-11; also: staples hydrogenated: -CH=CH- reduced to -CH2-CH2-) [I-1718] the figure was 382 nM. Regarding Ac-[αAllylPro]D[tBuAla][B5(4)]D[TfeGA″]AAFL[PyrS2″][3Thi][Bta]T-NH2 (staple 1-4, 4-11; reading uncertain) [I-1706], the 50% inhibitory concentration (IC50) amounted to 24 nM.

Take Ac-[αAllylPro][AspSH][tBuAla][B5]DDAAFN[PyrS2][Phe(2-Cl)][Bta]Q-NH2 (staple 1-4, 4-11; not fully specified) [I-1721]: the IC50 was 139 nM.

As to Ac-[αAllylPro]D[tBuAla][B5(3)]D[Phe(3-COOH)]QAFL[PyrS2″][2F3MeF][Phe(4-Cl)]A-NH2 (staple 1-4, 4-11) [I-2223], the IC50 stood at 50 nM. Still for that read-out and setting: with Ac-[αAllylPro]N[Cha][B5(5)]DQ[Lys(iPr)]AFN[PyrS2″]N[Bta][hSer]-NH2 (staple 1-4, 4-11) [I-2170] the figure was 10000 nM; with Ac-[αAllylPro]D[tBuAla][B5(4)]D[TfeGA]AAFL[PyrS2″][3Thi][Bta]T-NH2 (staple 1-4, 4-11; also: -CH=CH- in each staple reduced to -CH2-CH2-) [I-1716], 224 nM; with Ac-[αAllylPro]D[tBuAla][B5(4)]D[TfeGA]AAFL[PyrS2″][3Thi][Bta]N-NH2 (staple 1-4, 4-11; also: -CH=CH- in each staple reduced to -CH2-CH2-) [I-1715], 95 nM. In the case of Ac-[αAllylPro]N[Cha][B5(5)]DQ[Lys(iPr)]AFL[PyrS2″][Phe(3-CONH2)][Bta]Q-NH2 (staple 1-4, 4-11) [I-2163], the IC50 stood at 3720 nM.

As to Ac-[αAllylPro]D[tBuAla][B5(3)]D[Phe(3-COOH)]QAFL[PyrS2″][2F3MeF][Phe(3-Cl)]A-NH2 (staple 1-4, 4-11) [I-2227], the 50% inhibitory concentration (IC50) amounted to 47 nM. In the case of Ac-[αAllylPro]D[tBuAla][B5(3)]D[Phe(3-COOH)]AAFL[PyrS2″][2F3MeF][Phe(3-Cl)]S-NH2 (staple 1-4, 4-11) [I-2226], the half-inhibitory concentration (IC50) came to 97 nM. As for B2, the IC50 came out at 5000 nM. Still for that read-out and setting: with Ac-[αAllylPro]N[Cha][B5(5)]DQ[Lys(iPr)]AFL[PyrS2″]F[Bta][hSer]-NH2 (staple 1-4, 4-11) [I-2165] the figure was 441 nM; with Ac-[αAllylPro]N[Cha][B5(4)]DQ[Lys(iPr)]AFN[PyrS2″]F[Bta][hSer]-NH2 (staple 1-4, 4-11) [I-2167], 199 nM; with Ac-[αAllylPro]D[tBuAla][B5(4)]D[TfeGA]AAFL[PyrS2″][3Thi][Bta][Phe(2-CONH2)]-NH2 (staple 1-4, 4-11) [I-1707], 19 nM. On to Ac-[αAllylPro]D[tBuAla][B5(5)]D[TfeGA]AAFL[PyrS2″][3Thi][Bta][Phe(2-CONH2)]-NH2 (staple 1-4, 4-11; also: staples hydrogenated: -CH=CH- reduced to -CH2-CH2-) [I-1717], for which the IC50 was determined as 249 nM.

Regarding Ac-[αAllylPro]D[tBuAla][B5(3)]D[Phe(3-COOH)]AAFL[PyrS2″][3Thi][Phe(3-Cl)]Q-NH2 (staple 1-4, 4-11) [I-2224], the IC50 came to 14 nM. On the same count and under the same terms, the figure for Ac-[αAllylPro]N[Cha][B5(5)]DQ[Lys(iPr)]AFL[PyrS2″][Phe(3-CONH2)][Bta][hSer]-NH2 (staple 1-4, 4-11) [I-2166] is 1590 nM; for Ac-[αAllylPro]N[Cha][B5(5)]DQ[Lys(iPr)]AFN[PyrS2″]Q[Bta][hSer]-NH2 (staple 1-4, 4-11) [I-2171] it is 10000 nM.
